Laboratory results as given in PMC12881670, “Investigation into ligand selectivity and bias at the formyl peptide receptor family” (The Journal of Pharmacology and Experimental Therapeutics, 2025).
Where no end group is shown, it is not given here. The star is where a group is joined. Palmitoyl = CCCCCCCCCCCCCCCC(=O)*

How the values were obtained:
[1] = biological target: T1, Mm_Fpr1 (Mus musculus, UniProt P33766); assay: Internalization of FLAG-tagged receptors by flow cytometry; type: cell-based; settings: Mm_Fpr1, 30 min, relative to 1 μM WKYMVm
T1 construct: expressed in transfected cells
T1 sequence (P33766 1-364): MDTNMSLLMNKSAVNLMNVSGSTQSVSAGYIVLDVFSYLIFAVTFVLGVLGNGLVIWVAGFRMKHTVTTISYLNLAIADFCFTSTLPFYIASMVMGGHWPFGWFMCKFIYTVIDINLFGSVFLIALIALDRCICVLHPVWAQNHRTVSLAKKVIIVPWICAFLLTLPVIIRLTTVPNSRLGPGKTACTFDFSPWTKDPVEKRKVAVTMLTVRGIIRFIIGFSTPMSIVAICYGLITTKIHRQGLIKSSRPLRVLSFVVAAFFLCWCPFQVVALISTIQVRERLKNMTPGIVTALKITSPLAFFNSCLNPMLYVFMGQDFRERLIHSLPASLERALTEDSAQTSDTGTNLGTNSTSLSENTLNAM
Procedure: Internalization of FPRs was measured by flow cytometry.[30] Briefly, cells were incubated with Alexa Fluor 657 conjugated M1 antiflag antibody (Sigma-Aldrich Cat# F3040, RRID:AB_439712) for 30 minutes at 37 °C to label surface receptors. Cells were then incubated with the indicated concentration of ligand before washing in PBS/0.04% EDTA to remove any remaining surface antibody. Remaining fluorescence was then measured using flow cytometry on either a BD FACScalibur or Attune, recording 5000 gated events. […] As a control, some samples were left untreated, and “strip only” was measured as a readout of constitutive endocytosis, and this value was subtracted from the data. Vehicle control (0.1% DMSO) had no effect on internalization of receptors.
(§1) All data were analyzed using GraphPad Prism using the nonlinear regression log(agonist) versus response (3 parameters) function for all assays, except binding, which was analyzed using the One site-FitlogIC50 function. Bias calculations were carried out following IUPHAR guidelines as described,[27]^,[37] and data were presented as the Δ Activity ratio (Log[EmaxB/EC50B])-(Log[EmaxA/EC50A]).

[2] = biological target: T2, Mm_Fpr2 (Mus musculus, UniProt O88536); assay: BRET receptor-RLuc8 interaction with Arrestin 3-YFP; type: cell-based
T2 construct: expressed in transfected cells
T2 sequence (O88536 1-351): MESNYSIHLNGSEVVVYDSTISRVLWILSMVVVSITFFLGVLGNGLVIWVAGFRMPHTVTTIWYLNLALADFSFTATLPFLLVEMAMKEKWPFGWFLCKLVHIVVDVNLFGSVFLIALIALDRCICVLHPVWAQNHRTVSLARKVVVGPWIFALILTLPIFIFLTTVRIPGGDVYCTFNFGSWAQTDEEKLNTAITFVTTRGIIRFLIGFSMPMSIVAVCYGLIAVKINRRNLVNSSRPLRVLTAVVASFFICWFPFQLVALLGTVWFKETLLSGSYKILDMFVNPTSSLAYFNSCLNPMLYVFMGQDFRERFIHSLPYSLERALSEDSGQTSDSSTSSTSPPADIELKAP
Procedure: (§2) BRET1 assays to measure FPR interaction with Venus-mGsi and Arrestin 3-yellow fluorescent protein (YFP) were performed as previously described.[31]^,[32] Briefly, all FPRs C-terminally fused to Renilla Luciferase (donor, RLuc8) were transiently transfected along with either Venus-mGsi or YFP-Arrestin 3 (acceptor) at a ratio of 1:4. 24 hours post transfection, cells were replated into white-walled, 96-well plates and cultured for a further 24–48 hours. On the day of experimentation, growth media was aspirated and replaced with 80 μl Hanks Buffered Saline Solution and equilibrated for 30 minutes. Coelenterazine h was added to each well to a final concentration of 5 μM for 5 minutes before the addition of each compound, and the plate was incubated for a further 10 minutes at 37 °C before being read on a ClarioStar Plus, with luminescence measured at 480/20 nm (donor) and 530/20 (acceptor). The BRET ratio (acceptor/donor) was determined, and the background (untreated) subtracted to give the N-BRET value.
as §1

[3] = biological target: T3, Hs_FPR1 (Homo sapiens, UniProt P21462); assay: as above; type: cell-based
T3 construct: expressed in transfected cells
T3 sequence (P21462 1-350): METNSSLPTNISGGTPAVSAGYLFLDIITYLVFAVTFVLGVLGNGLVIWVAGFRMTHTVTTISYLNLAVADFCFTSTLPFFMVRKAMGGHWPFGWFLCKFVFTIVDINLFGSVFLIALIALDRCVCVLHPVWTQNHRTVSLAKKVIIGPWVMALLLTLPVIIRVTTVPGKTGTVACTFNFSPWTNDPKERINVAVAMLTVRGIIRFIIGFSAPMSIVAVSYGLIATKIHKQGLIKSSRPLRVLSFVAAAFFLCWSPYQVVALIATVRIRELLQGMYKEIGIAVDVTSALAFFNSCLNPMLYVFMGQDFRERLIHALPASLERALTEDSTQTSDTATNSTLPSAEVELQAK
Procedure: as §2, §1

[4] = biological target: T1, Mm_Fpr1; assay: as above; type: cell-based
Procedure: as §2, §1

[5] = biological target: T4, Hs_FPR2 (Homo sapiens, UniProt P25090); assay: as above; type: cell-based
T4 construct: expressed in transfected cells
T4 sequence (P25090 1-351): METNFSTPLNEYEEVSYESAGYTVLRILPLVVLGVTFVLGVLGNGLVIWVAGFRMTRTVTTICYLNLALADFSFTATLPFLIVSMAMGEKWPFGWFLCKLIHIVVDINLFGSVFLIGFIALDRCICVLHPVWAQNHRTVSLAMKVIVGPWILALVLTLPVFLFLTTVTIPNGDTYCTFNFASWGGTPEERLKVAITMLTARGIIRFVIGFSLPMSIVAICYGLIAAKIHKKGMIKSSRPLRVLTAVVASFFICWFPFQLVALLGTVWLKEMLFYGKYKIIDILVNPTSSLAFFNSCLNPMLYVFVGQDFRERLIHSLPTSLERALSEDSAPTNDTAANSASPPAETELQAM
Procedure: as §2, §1

[6] = biological target: T2, Mm_Fpr2; assay: BRET receptor-RLuc8 interaction with Venus-mGsi; type: cell-based
Procedure: as §2, §1

[7] = biological target: T3, Hs_FPR1; assay: BRET receptor-RLuc8 interaction with Venus-mGsi; type: cell-based
Procedure: as §2, §1

[8] = biological target: T1, Mm_Fpr1; assay: BRET receptor-RLuc8 interaction with Venus-mGsi; type: cell-based
Procedure: as §2, §1

[9] = biological target: T4, Hs_FPR2; assay: BRET receptor-RLuc8 interaction with Venus-mGsi; type: cell-based
Procedure: as §2, §1

[10] = system: FPR1; settings: at 100 nM; cited from earlier work
[11] = biological target: T2, Mm_Fpr2; assay: ERK1/2 phosphorylation by Western blotting; type: cell-based
Procedure: (§3) ERK phosphorylation was detected by Western blotting as previously described.[30] Briefly, HEK293 cells stably expressing FLAG-tagged FPRs were plated into 12-well culture plates until 90% confluent. On the day of the experiment, culture media was replaced with serum-free Dulbecco’s modified Eagle’s medium and incubated for 2 hours before stimulation with the indicated compounds. After 7 minutes, the media was removed and stimulation terminated by the addition of 100 μl sample buffer (0.5% SDS, Tris (pH 6.8), glycerol, at >90 °C).
as §1

[12] = biological target: T3, Hs_FPR1; assay: ERK1/2 phosphorylation by Western blotting; type: cell-based
Procedure: as §3, §1

[13] = biological target: T1, Mm_Fpr1; assay: ERK1/2 phosphorylation by Western blotting; type: cell-based
Procedure: as §3, §1

[14] = biological target: T4, Hs_FPR2; assay: ERK1/2 phosphorylation by Western blotting; type: cell-based
Procedure: as §3, §1

[15] = system: formyl peptide receptor family (Hs_FPR1, Hs_FPR2, Mm_Fpr1, Mm_Fpr2); assay: Summary of main findings: receptor subtype selectivity and ligand bias across all readouts; parameters: species or system human and mouse; settings: summary grade of ligand bias relative to WKYMVm; key not given
Excerpt: To determine ligand bias, a reference ligand is required, that is, “balanced” for the pathways tested.[37] […] We then used measurements of the activity ratio (Log (Emax/EC50)) for each receptor, ligand, and pathway in an attempt to observe any ligand bias (Fig. 6).

[16] = biological target: T5, FLAG-tagged human FPR2 (Hs_FPR2) (human, UniProt P25090 1-351); assay: cell-based or functional assay
T5 sequence (looked up): T4 sequence (P25090 1-351)

[17] = biological target: T6, FLAG-tagged mouse Fpr2 (Mm_Fpr2) (mouse, UniProt O88536 1-351); assay: cell-based or functional assay
T6 sequence (looked up): T2 sequence (O88536 1-351)

[18] = biological target: T5, FLAG-tagged human FPR2 (Hs_FPR2); assay: cell-based or functional assay; remark: listed apart in the source
[19] = biological target: T6, FLAG-tagged mouse Fpr2 (Mm_Fpr2); assay: cell-based or functional assay; remark: listed apart in the source
[20] = biological target: T6, FLAG-tagged mouse Fpr2 (Mm_Fpr2); assay: flow cytometry on cells; competition binding: HEK293 cells stably expressing the receptor, lifted in PBS, on ice 90 min with 10 nM K(5/6-FAM)-WKYMVm and increasing unlabeled ligand; mean fluorescence of 5000 cells as % of that without competitor; One site-Fit logIC50
[21] = biological target: T5, FLAG-tagged human FPR2 (Hs_FPR2); assay: as above
[22] = biological target: T7, FLAG-Mm_Fpr2 C-terminally fused to Renilla Luciferase 8 (mouse, UniProt O88536 1-351); assay: cell-based or functional assay
T7 sequence (looked up): T2 sequence (O88536 1-351)

[23] = biological target: T8, FLAG-Hs_FPR2 C-terminally fused to Renilla Luciferase 8 (human, UniProt P25090 1-351); assay: cell-based or functional assay
T8 sequence (looked up): T4 sequence (P25090 1-351)

[24] = biological target: T7, FLAG-Mm_Fpr2 C-terminally fused to …; assay: cell-based or functional assay; remark: listed apart in the source
[25] = biological target: T8, FLAG-Hs_FPR2 C-terminally fused to …; assay: cell-based or functional assay; remark: listed apart in the source

CSCC[C@H](NC(=O)[C@@H](NC(=O)[C@H](CCSC)NC(=O)[C@H](Cc1ccc(O)cc1)NC(=O)[C@H](CCCCN)NC(=O)[C@@H](N)Cc1c[nH]c2ccccc12)C(C)C)C(N)=O [WKYMVM]
agonist-induced internalization (words) [1]: full agonists | Emax [2]: 94.3% | Emax [3]: 75% | Emax [4]: 83.1% | Emax [5]: 94.8% | Emax [6]: 87.9% | Emax [7]: 44.1% | Emax [8]: 37.5% | Emax [9]: 79.2% | arrestin recruitment to FPR1, Pathhunter [10]: neither WKYMVM nor ACT-389949 resulted in recruitment | Emax at 1 µM [11]: 128% | Emax at 1 µM [12]: 141% | Emax at 1 µM [13]: 118% | Emax at 1 µM [14]: 125% | Bias [15]: No

B1: F2Pal10 (Pal-Pal-KIHKKGMIKS) (peptide)
peptide: {Palmitoyl-Palmitoyl}-KIHKKGMIKS
notes: Pal is printed twice; the text speaks of N-terminal palmitoylation as the last step of the synthesis; also called pepducin; source: synthetic peptide (Fmoc solid phase, purified by preparative RP-HPLC)
TruPath BRET: dissociation of Gαi2 from β3γ9, EC50 (receptor not given) [16]: 130 nM | ERK1/2 phosphorylation (Western blot): Emax (% of 1 μM WKYMVm) [17]: 141% | ERK1/2 phosphorylation (Western blot): Log EC50 (M) [17]: -7.27 log M | ERK1/2 phosphorylation (Western blot): Emax (% of 1 μM WKYMVm) [18]: 80.8% | ERK1/2 phosphorylation (Western blot): Log EC50 (M) [18]: -7.47 log M | receptor internalization (flow cytometry): Emax (% of 1 μM WKYMVm) [19]: 12.3% | receptor internalization (flow cytometry): Log EC50 (M) [19]: -10.5 log M | Log IC50 [20]: -5.38 log M | Max Comp (%) [20]: 100% | Log IC50 [21]: -5.27 log M | Max Comp (%) [21]: 100% | BRET of receptor-RLuc8 with Arrestin 3-YFP: Emax (% of 1 μM WKYMVm) [22]: 33.4% | BRET of receptor-RLuc8 with Arrestin 3-YFP: Log EC50 (M) [22]: -6.58 log M | BRET of receptor-RLuc8 with Arrestin 3-YFP: Emax (% of 1 μM WKYMVm) [23]: 25.5% | BRET of receptor-RLuc8 with Arrestin 3-YFP: Log EC50 (M) [23]: -6.55 log M | BRET of receptor-RLuc8 with Venus-mGsi: Emax (% of 1 μM WKYMVm) [24]: 24.2% | BRET of receptor-RLuc8 with Venus-mGsi: Log EC50 (M) [24]: -6.78 log M | BRET of receptor-RLuc8 with Venus-mGsi: Emax (% of 1 μM WKYMVm) [25]: 19.4% | BRET of receptor-RLuc8 with Venus-mGsi: Log EC50 (M) [25]: -6.78 log M
